{"source": "paper PMC9674691", "key": {"[1]": {"target": "biotinylated NmeHNH (Neisseria meningitidis) (UniProt C9X1G5)", "assay": "BLI; biotinylated NmeHNH on streptavidin biosensors, Acr as analyte, 37 °C, 20 mM Tris, 100 mM NaCl, pH 7.4 without DTT; global 1:1 fit"}, "[2]": {"target": "biotinylated NmeHNH (Neisseria meningitidis) (UniProt C9X1G5)", "assay": "BLI; biotinylated NmeHNH on streptavidin biosensors, Acr as analyte, 37 °C, 20 mM Tris, 100 mM NaCl, pH 7.4 with 1 mM DTT; global 1:1 fit"}, "Cys80": {"target": "Cys80 (UniProt position 80, VGMASCWEFVE)", "assay": "NMR", "details": "25 °C (general statement in the NMR methods), 100 mM NaCl, 50 mM Tris, buffer-exchanged at each pH, Free protein. Reduced monomer is inferred from Cbeta shifts of about 25.5-29.5 ppm, typical of free thiol. The presence of a reductant in the titration buffer is not stated."}, "Cys17": {"target": "Cys17 (UniProt position 17, AGYDGCGLCLA)", "assay": "NMR", "details": "25 °C (general statement in the NMR methods), 100 mM NaCl, 50 mM Tris, buffer-exchanged at each pH, Free protein. Reduced monomer is inferred from Cbeta shifts of about 25.5-29.5 ppm, typical of free thiol. The presence of a reductant in the titration buffer is not stated."}, "[3]": {"target": "BoeAcrIIC1 (AcrIIC1 ortholog from Brackiella oedipodis) (Brackiella oedipodis)", "assay": "SEC + other: 1H NMR spectra; AcrIIC1 ortholog alone, oxidizing condition"}, "[4]": {"target": "NmeAcrIIC1 (AcrIIC1 from Neisseria meningitidis), reduced form (Neisseria meningitidis)", "assay": "SEC; NmeAcrIIC1 alone, no reductant in the buffer or excess H2O2 added to the monomer eluent"}}, "data": [{"substance": "AcrIIC1-SS (NmeAcrIIC1 with Cys17 and Cys80 substituted with serine) (natural protein)", "values": [{"measurement": "Kd", "setting": "[1]", "value": 0.0108, "unit": "µM"}, {"measurement": "Kd", "setting": "[2]", "value": 0.0127, "unit": "µM"}]}, {"substance": "Anti-CRISPR protein AcrIIC1 (NmeAcrIIC1) (Neisseria meningitidis)", "values": [{"measurement": "pKa", "setting": "Cys80", "value": "8.258 ± 0.218"}, {"measurement": "pKa", "setting": "Cys17", "value": "8.920 ± 0.158"}]}, {"substance": "BoeAcrIIC1 (AcrIIC1 ortholog from Brackiella oedipodis) (natural protein)", "values": [{"measurement": "stoichiometry N", "setting": "[3]", "value": 2}]}, {"substance": "NmeAcrIIC1 (AcrIIC1 from Neisseria meningitidis), reduced form (natural protein)", "values": [{"measurement": "stoichiometry N", "setting": "[4]", "value": 2}, {"measurement": "Kd", "setting": "[2]", "value": 0.00178, "unit": "µM"}]}, {"substance": "oxidized NmeAcrIIC1 dimer (natural protein)", "values": [{"measurement": "BLI response", "setting": "[1]", "value": "< 0.05"}]}]}
